According to article PMC6698656, “Structural insights into dimethylation of 12S rRNA by TFB1M: indispensable role in translation of mitochondrial genes and mitochondrial function”:

Experiments:
Conditions in all cases: protein: recombinant; tags: His6-MBP N-terminal, removed by TEV; label: 5'-FAM; hairpin
[1] = biological target: hsTFB1M F144A (Homo sapiens, UniProt Q8WVM0 28-346, F144A); assay: EMSA; affinity not significantly changed vs WT; EMSA: 50 mM Tris-HCl pH 8.0, 25 mM NaCl, 100 nM RNA, TFB1M 0-2 mM as printed (legend suggests uM), 37 C 30 min; 6% native PAGE, 0.5x TBE
Sequence of hsTFB1M F144A (Q8WVM0 28-346 F144A): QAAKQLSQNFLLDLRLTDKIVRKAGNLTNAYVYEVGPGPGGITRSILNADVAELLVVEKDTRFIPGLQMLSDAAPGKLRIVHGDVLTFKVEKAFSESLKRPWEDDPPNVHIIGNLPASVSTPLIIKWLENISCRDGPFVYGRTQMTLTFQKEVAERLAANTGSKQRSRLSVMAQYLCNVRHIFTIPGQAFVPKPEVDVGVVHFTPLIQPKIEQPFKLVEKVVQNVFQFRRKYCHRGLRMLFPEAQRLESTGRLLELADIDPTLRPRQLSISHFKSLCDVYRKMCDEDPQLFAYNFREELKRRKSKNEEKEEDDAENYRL

[2] = biological target: hsTFB1M N36A (Homo sapiens, UniProt Q8WVM0 28-346, N36A); assay: as above
Sequence of hsTFB1M N36A (Q8WVM0 28-346 N36A): as the sequence (Q8WVM0 28-346 F144A) above, with N9A, A117F counted along it

[3] = biological target: hsTFB1M V225A (Homo sapiens, UniProt Q8WVM0 28-346, V225A); assay: as above
Sequence of hsTFB1M V225A (Q8WVM0 28-346 V225A): as the sequence (Q8WVM0 28-346 F144A) above, with A117F, V198A counted along it

[4] = biological target: hsTFB1M Q35A (Homo sapiens, UniProt Q8WVM0 28-346, Q35A); assay: as above
Sequence of hsTFB1M Q35A (Q8WVM0 28-346 Q35A): as the sequence (Q8WVM0 28-346 F144A) above, with Q8A, A117F counted along it

[5] = biological target: hsTFB1M Q177A (Homo sapiens, UniProt Q8WVM0 28-346, Q177A); assay: EMSA; affinity improved to some degree; EMSA: 50 mM Tris-HCl pH 8.0, 25 mM NaCl, 100 nM RNA, TFB1M 0-2 mM as printed (legend suggests uM), 37 C 30 min; 6% native PAGE, 0.5x TBE
Sequence of hsTFB1M Q177A (Q8WVM0 28-346 Q177A): as the sequence (Q8WVM0 28-346 F144A) above, with A117F, Q150A counted along it

[6] = biological target: hsTFB1M E179A (Homo sapiens, UniProt Q8WVM0 28-346, E179A); assay: as above
Sequence of hsTFB1M E179A (Q8WVM0 28-346 E179A): as the sequence (Q8WVM0 28-346 F144A) above, with A117F, E152A counted along it

[7] = biological target: hsTFB1M I152A (Homo sapiens, UniProt Q8WVM0 28-346, I152A); assay: EMSA; affinity not impaired; EMSA: 50 mM Tris-HCl pH 8.0, 25 mM NaCl, 100 nM RNA, TFB1M 0-2 mM as printed (legend suggests uM), 37 C 30 min; 6% native PAGE, 0.5x TBE
Sequence of hsTFB1M I152A (Q8WVM0 28-346 I152A): as the sequence (Q8WVM0 28-346 F144A) above, with A117F, I125A counted along it

[8] = biological target: hsTFB1M R195A (Homo sapiens, UniProt Q8WVM0 28-346, R195A); assay: as above
Sequence of hsTFB1M R195A (Q8WVM0 28-346 R195A): as the sequence (Q8WVM0 28-346 F144A) above, with A117F, R168A counted along it

[9] = biological target: hsTFB1M E246A (Homo sapiens, UniProt Q8WVM0 28-346, E246A); assay: as above
Sequence of hsTFB1M E246A (Q8WVM0 28-346 E246A): as the sequence (Q8WVM0 28-346 F144A) above, with A117F, E219A counted along it

Measured: binding result

B1: 5'-FAM h45 RNA (WT) (structured_RNA)
RNA: GGUAAGUGUACUGGAAAGUGCACUUGCC
binds: all assays above
